The results in this text go back to PMC2874204 (Cancer cell, 2010).

The test deals with RUNX1 Runt domain (UniProt Q01196 50-178). The experiment in a line: ITC.
RUNX1 Runt domain, sequence (Q01196 50-178): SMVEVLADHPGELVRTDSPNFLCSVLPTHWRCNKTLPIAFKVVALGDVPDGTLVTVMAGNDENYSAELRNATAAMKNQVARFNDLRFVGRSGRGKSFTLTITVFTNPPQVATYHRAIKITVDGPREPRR

B1: CBFβ-SMMHC_(d134-236) (type I CBFβ-SMMHC fusion protein) (other)
chain: MPRVVPDQRSKFENEEFFRKLSRECEIKYTGFRDRPHEERQARFQNACRDGRSEIAFVATGTNLSLQFFPASWQGEQRQTPSREYVDLEREAGKVYLKAPMILNGVCVIWKGWIDLQRLDGMGCLEFDEERAQLHEYETELEDERKQRALAAAAKKKLEGDLKDLELQADSAIKGREEAIKQLRKLQAQMKDFQRELEDARASRDEIFATAKENEKKAKSLEADLMQLQEDLAAAERARKQADLEKEELAEELASSLSGRNALQDEKRRLEARIAQLEEELEEEQGNMEAMSDRVRKATQQAEQLSNELATERSTAQKNESARQQLERQNKELRSKLHEMEGAVKSKFKSTIAALEAKIAQLEEQVEQEAREKQAATKSLKQKDKKLKEILLQVEDERKMAEQYKEQAEKGNARVKQLKRQLEEAEEESQRINANRRKLQRELDEATESNEAMGREVNALKSKLRRGNETSFVPSRRSGGRRVIENADGSEEETDTRDADFNGTKASE
In the case of B1, the Kd was around 709 nM and the “stoichiometry N” value stood at 1.17.
